Experimental data reported in patent US20250179142A1 (SUNSHINE LAKE PHARMA, published 2025).
Changes are numbered by the printed parent chain. Numbers in names are those of the source. Each block holds one binder with its values, some of them ahead of it.

Assays:
[1] = target: glucagon-like peptide-1 receptor (UniProt P43220 24-463, limits assumed); assay: cell-based or functional assay
[2] = target: the molecule itself; assay: SEC (size exclusion HPLC), self-association of the Fc into a homodimer
Description: (§1) In this example, the effects of introducing different mutations on the structural properties of Fc were tested, and the test results of some mutants are shown in Table 5. Test steps include:
(§2) Molecular cloning method was used to insert Fc nucleic acid sequence into mammalian cell expression vector, and ExpiCHO Fectamine™ CHO Transfection Kit (ThermoFisher Scientific) was used for transient transfection and expression in CHO-S cells; after purification by Protein A column, the target protein was obtained, and the target protein was analyzed by size exclusion high performance liquid chromatography (SEC). The main principle of SEC analysis is based on the molecular weight and three-dimensional structure of the analyte (such as protein). Generally, analytes with larger molecular weights will pass through the chromatographic column more quickly, so they have a shorter column retention time. On the contrary, analytes with smaller molecular weights have longer retention times. So SEC can be used to analyze the aggregation of protein molecules.

[3] = target: the molecule itself; assay: SEC (size exclusion HPLC), self-association of the Fc
Description: as §1, §2

- GLP-1 activity (EC50, nM): intracellular cAMP in HEK293 cells with high GLP-1R expression [1]: 0.118 nM
B1: GLP-1-Fc-GDF15 fusion protein D11 (Fc fusion)
chain: HGEGTFTSDVSSYLEEQAAKEFIAWLVKGGGGGGGSGGGGSGGGGSEAAGGPSVFLFPPKPKDTLMISRTPEVTCVVVDVSQEDPEVQFNWYVDGVEVHNAKTKPREEQFNSTYRVVSVLTVLHQDWLNGKEYKCKVSNKGLPSSIEKTISKAKGQPREPQVYTLPPSQEEMTKNQVSLTCLVKGFYPSDIAVEWESNGQPENNYKTTPPVLDSDGSFFLYSRLTVDKSRWQEGNVFSCSVMHEALHNHYTQESLSLSLGGGGGSGGGGSAPAPAPAPAPAPAPAPAPAPGGGGSGGGGSDHCPLGPGRCCRLHTVRASLEDLGWADWVLSPREVQVTMCIGACPSQFRAANMHAQIKTSLHRLKPDTVPAPCCVPASYNPMVLIQKTDTGVSLQTYDDLLAKDCHCI

- GLP-1 activity (EC50, nM): intracellular cAMP in HEK293 cells with high GLP-1R expression [1]: 0.124 nM
B2: GLP-1-Fc-GDF15 fusion protein D13 (Fc fusion)
chain: B1 chain with A24Q

- GLP-1 activity (EC50, nM): intracellular cAMP in HEK293 cells with high GLP-1R expression [1]: 0.183 nM
B3: GLP-1-Fc-GDF15 fusion protein D14 (Fc fusion)
chain: B1 chain with I23V, A24Q

- GLP-1 activity (EC50, nM): intracellular cAMP in HEK293 cells with high GLP-1R expression [1]: 0.084 nM
B4: GLP-1-Fc-GDF15 fusion protein D8 (Fc fusion)
chain: HGEGTFTSDVSSYLEEQAAKEFIAWLVKGGGGGGGSGGGGSGGGGSAPEAAGGPSVFLFPPKPKDTLMISRTPEVTCVVVDVSQEDPEVQFNWYVDGVEVHNAKTKPREEQFNSTYRVVSVLTVLHQDWLNGKEYKCKVSNKGLPSSIEKTISKAKGQPREPQVYTLPPSQEEMTKNQVSLTCLVKGFYPSDIAVEWESNGQPENNYKTTPPVLDSDGSFFLYSRLTVDKSRWQEGNVFSCSVMHEALHNHYTQESLSLSLGGGGGSGGGGSAPAPAPAPAPAPAPAPAPAPGGGGSGGGGSDHCPLGPGRCCRLHTVRASLEDLGWADWVLSPREVQVTMCIGACPSQFRAANMHAQIKTSLHRLKPDTVPAPCCVPASYNPMVLIQKTDTGVSLQTYDDLLAKDCHCI

- GLP-1 activity (EC50, nM): intracellular cAMP in HEK293 cells with high GLP-1R expression [1]: 0.1 nM
B5: GLP-1-Fc-GDF15 fusion protein D9 (Fc fusion)
chain: B4 chain with E255Q

B6: IgG4 Fc (AA, K439E) (other)
chain: EAAGGPSVFLFPPKPKDTLMISRTPEVTCVVVDVSQEDPEVQFNWYVDGVEVHNAKTKPREEQFNSTYRVVSVLTVLHQDWLNGKEYKCKVSNKGLPSSIEKTISKAKGQPREPQVYTLPPSQEEMTKNQVSLTCLVKGFYPSDIAVEWESNGQPENNYKTTPPVLDSDGSFFLYSRLTVDKSRWQEGNVFSCSVMHEALHNHYTQESLSLSLG
- binding result [2]: binds

B7: IgG4 Fc (AA, K439D) (other)
chain: B6 chain with E207D
- binding result [2]: binds

B8: IgG4 Fc (AA, F405Q/Y407E) (other)
chain: B6 chain with F173Q, Y175E, E207K
- binding result [3]: no binding
